Results from article PMC3621912 (Virology, 2012).

Experiments:
[1] = biological target: the molecule itself; experiment: non-reducing SDS-PAGE
[2] = biological target: the molecule itself; experiment: non-reducing SDS-PAGE with gel densitometry
[3] = biological target: the molecule itself; experiment: non-reducing SDS-PAGE with immunoblot

B1: recombinant VI114-G48C (protein VI residues 34-114 with G48C) (domain or fragment)
chain: AFSWGSLWSGIKNFCSTVKNYGSKAWNSSTGQMLRDKLKEQNFQQKVVDGLASGISGVVDLANQAVQNKINSKLDPRPPVE
modifications: intermolecular disulfide bond (in the dimer fraction)
[1]
  stoichiometry N: 2

B2: protein VI with the G48C mutation, in AdV VI-G48C particles (natural protein)
chain: AFSWGSLWSGIKNFCSTVKNYGSKAWNSSTGQMLRDKLKEQNFQQKVVDGLASGISGVVDLANQAVQNKINSKLDPRPPVEEPPPAVETVSPEGRGEKRPRPDREETLVTQIDEPPSYEEALKQGLPTTRPIAPMATGVLGQHTPVTLDLPPPADTQQKPVLPGPTAVVVTRPSRASLRRAASGPRSLRPVASGNWQSTLNSIVGL
modifications: intermolecular disulfide bond between protein VI molecules (in the dimer fraction)
[2]
  ratio of monomer:dimer: ~1.4 dimer per monomer
[3]
  stoichiometry N: 2
